Marks after values point to notes of the source that are not given here.
How the values were obtained:
[1] = system: KT-11 xenograft (Wilms); experiment: PPTP in vivo xenograft KT-11; details: KT-11 (Wilms) xenograft, 0.5 mg per mouse ip twice weekly for four weeks
Description: (§1) The PPTP includes a molecularly characterized in vitro panel of cell lines (n=27) and in vivo panel of xenografts (n=61) representing most of the common types of childhood solid tumors and childhood ALL (acute lymphoblastic leukemia). LCF/HCA anti-IGF1R antibody was tested against the PPTP in vitro panel at concentrations ranging from 0.01 nM to 100 nM; and was tested against the PPTP in vivo panel at a dose of 0.5 mg per mouse administered twice weekly for four weeks via intraperitoneal injection. Three measures of antitumor activity were used: 1) response criteria modeled after the clinical setting; 2) treated-to-control (T/C) tumor volume at day 21; and 3) a time to event (4-fold increase in tumor volume) measure based on the median EFS of treated and control lines (intermediate activity required EFS (event-free survival) T/C>2, and high activity additionally required a net reduction in median tumor volume at the end of the experiment).
(§2) Stage 1 testing involved testing an agent across the entire PPTP panel of childhood cancer xenograft lines at its maximum tolerated dose (MTD) or at a dose selected based on PK/PD (pharmacokinetic/pharmacodynamic) studies using adult preclinical models.
(§3) In vivo solid tumor testing: For each xenograft line, 10 mice bearing subcutaneous (SC) tumors initiated treatment when the tumors were between 0.2-0.5 cm^3 in volume. Two perpendicular tumor diameters were measured at once weekly intervals with digital vernier calipers. Assuming tumors to be spherical, volumes were calculated from the formula (π/6)×d3, where d represented the mean diameter.
(§4) Drug: LCF/HCA was dissolved in 20mM sodium acetate pH 5 buffer containing 150 mM sodium chloride, and administered intraperitoneally twice weekly for 4 consecutive weeks at a dose of 0.5 mg per animal. […]
(§5) Median Group Response: Each individual mouse in each treatment group was assigned a response score (see Tables above) and a median score for the treatment group was calculated and then each treatment group was assigned an overall response according to the table below. […]

[2] = system: NB-1771 xenograft (Neuroblastoma); experiment: PPTP in vivo xenograft NB-1771; details: NB-1771 (Neuroblastoma) xenograft, 0.5 mg per mouse ip twice weekly for four weeks
Description: as §1, §2, §3, §4, §5

[3] = system: OS-9 xenograft (Osteosarcoma); experiment: PPTP in vivo xenograft OS-9; set-up: key to EFS activity notation (high, intermediate, indeterminate): high (!); intermediate (#); indeterminate (^); details: OS-9 (Osteosarcoma) xenograft, 0.5 mg per mouse ip twice weekly for four weeks
Description: as §1, §2, §3
(§6) Drug: LCF/HCA was dissolved in 20mM sodium acetate pH 5 buffer containing 150 mM sodium chloride, and administered intraperitoneally twice weekly for 4 consecutive weeks at a dose of 0.5 mg per animal. The antibody was provided to each testing site in coded vials for blinded testing according the PPTP's standard operating procedures.
(§7) Median Group Response: Each individual mouse in each treatment group was assigned a response score (see Tables above) and a median score for the treatment group was calculated and then each treatment group was assigned an overall response according to the table below.
(§8) Statistical Methods: Event-free survival (EFS) distributions of each treatment group were compared to the EFS distribution of the respective control group using the exact log rank test. P-values were 2-sided & were not adjusted for multiple comparisons given the exploratory nature of this study. P-values<0.05 were considered to be significant.

[4] = system: squamous cell carcinoma cell line SCC 9; experiment: Cell-Titer Glo proliferation assay, SCC9; type: cell-based; details: 0.000256-100 nM antibody, 96 hours
Description: Cell proliferation was assayed using a Cell-Titer Glo assay (Promega Corp.; Madison, Wis.). A cell-titer glo assay generates a “glow” luminescent signal in the presence of ATP from viable cells, which can be detected with a plate reader luminometer or CCD imaging device.
In this assay, squamous cell carcinoma cells, SCC9, SCC25 and SCC15, were trypsinized, counted and resuspended at 25,000 cells/ml in 10% HI-FBS RPMI containing NEAA, L-Glu, MEM Vitamins and PS. […] (2500 cells) were added to each well BD Falcon 96 well black, clear bottom TC treated plate. Cells were allowed to attach and spread overnight at 37° C. Then, 10% RPMI medium was replaced with […] 2% RPMI, containing the LCF/HCA antibody at the appropriate concentration, the following day. The anti-IGF1R antibody concentrations used in each experiment were 100 nM, 20 nM, 5 nM, 0.8 nM, 0.16 nM, 0.032 nM, 0.0064 nM, 0.00128 nM, and 0.000256 nM. All treatments were prepared in 2% RPMI at 20× concentration and serial diluted. Every test point was prepared in triplicate on separate assay plates. As mentioned above, cell proliferation was measured using the CellTiter-Glo Luminescent Cell Viability Assay (Promega) at 96 hours post treatment. Luminescence was detected on a Wallac 420 Plate Reader with stacker.

[5] = system: gastric cancer cell line SNU-16; experiment: Cell-Titer Glo proliferation assay, SNU-16; type: cell-based, human; details: 0.000256-100 nM antibody
[6] = system: OS-1 xenograft (Osteosarcoma); experiment: PPTP in vivo xenograft OS-1; set-up: key to EFS activity notation (high, intermediate, indeterminate): high (!); intermediate (#); indeterminate (^); details: OS-1 (Osteosarcoma) xenograft, 0.5 mg per mouse ip twice weekly for four weeks
Description: as §1, §2, §3, §4, §5

[7] = system: TC-71 xenograft (Ewings); experiment: PPTP in vivo xenograft TC-71; details: TC-71 (Ewings) xenograft, 0.5 mg per mouse ip twice weekly for four weeks
Description: as §1, §2, §3, §4, §5

[8] = system: ALL-7 xenograft (ALL B-precursor); experiment: PPTP in vivo leukemia xenograft ALL-7; details: ALL-7 (ALL B-precursor) xenograft; 0.5 mg per mouse ip twice weekly for four weeks
Description: The PPTP includes a molecularly characterized in vitro panel of cell lines (n=27) and in vivo panel of xenografts (n=61) representing most of the common types of childhood solid tumors and childhood ALL (acute lymphoblastic leukemia). LCF/HCA anti-IGF1R antibody was tested against the PPTP in vitro panel at concentrations ranging from 0.01 nM to 100 nM; and was tested against the PPTP in vivo panel at a dose of 0.5 mg per mouse administered twice weekly for four weeks via intraperitoneal injection. […]
In vivo acute lymphoblastic leukemia testing: For each xenograft line, 8 mice were inoculated with 3-5×10^6 mononuclear cells purified from the spleens of secondary recipient mice. Engraftment was monitored weekly by flow cytometry, and treatment was initiated when the proportion of human CD45+ cells in the peripheral blood reached 1%. The proportion of human CD45+ cells in the peripheral blood was monitored weekly throughout the course of treatment. […]
as §5

[9] = system: BT-29 xenograft (Rhabdoid); experiment: PPTP in vivo xenograft BT-29; details: BT-29 (Rhabdoid) xenograft, 0.5 mg per mouse ip twice weekly for four weeks
Description: as §1, §2, §3, §4, §5

[10] = system: KT-10 xenograft (Wilms); experiment: PPTP in vivo xenograft KT-10; details: KT-10 (Wilms) xenograft, 0.5 mg per mouse ip twice weekly for four weeks
Description: as §1, §2, §3, §4, §5

[11] = system: KT-14 xenograft (Rhabdoid); experiment: PPTP in vivo xenograft KT-14; set-up: key to EFS activity notation (high, intermediate, indeterminate): high (!); intermediate (#); indeterminate (^); details: KT-14 (Rhabdoid) xenograft, 0.5 mg per mouse ip twice weekly for four weeks
Description: as §1, §2, §3, §6, §7, §8

B1: LCF/HCA: fully human anti-IGF1R antibody comprising the mature 19D12/15H12 light chain F (LCF) and mature heavy chain A (HCA) (antibody, V domains shown)
VH: EVQLVQSGGGLVHPGGSLRLSCAASGFTFSSFAMHWVRQAPGKGLEWISVIDTRGATYYADSVKGRFTISRDNAKNSLYLQMNSLRAEDMAVYYCARLGNFYYGMDVWGQGTTVTVSS
VL: EIVLTQVPDFQSVTPKEKVTITCRASQSIGSSLHWYQQKPDQSPKLLIKYASQSLSGVPSRFSGSGSGTDFTLTINSLEAEDAAAYYCHQSSRLPHTFGGGTKVEIKRT
**Q.** For B1, which “EFS T/C” value [1] is on record?
**A.** The value was 1.

**Q.** And the “Median Final RTV” value [1]?
**A.** Its value is over 4.

**Q.** And the “Tumor Volume T/C” value ([1]; day 21)?
**A.** Its value is 0.99.

**Q.** And the “EFS T/C” value [2]?
**A.** Its value is 1.1.

**Q.** What about the “Median Final RTV” value [2] of the same molecule?
**A.** The value was over 4.

**Q.** What about the “Tumor Volume T/C” value ([2]; day 21) of the same molecule?
**A.** Its value is 0.64.

**Q.** What about the “EFS T/C” value [3] of the same molecule?
**A.** Its value is over 1.2.

**Q.** And the “EFS activity notation (high, intermediate, indeterminate)” value (shortened to “EFS activity notation”) [3]?
**A.** Its value is “^”.

**Q.** And the “Median Final RTV” value [3]?
**A.** The value was 0.4^.

**Q.** What about the “Tumor Volume T/C” value ([3]; day 21) of the same molecule?
**A.** Its value is 0.31.

**Q.** And the “proliferation of squamous cell carcinoma cell line” value [4]?
**A.** Its value is “inhibited”.

**Q.** And the “proliferation of gastric cancer cell line” value [5]?
**A.** Its value is “inhibitied”.

**Q.** And the “EFS T/C” value [6]?
**A.** Its value is over 1.3.

**Q.** What about the “EFS activity notation” value [6] of the same molecule?
**A.** The value was “^”.

**Q.** And the “Tumor Volume T/C” value ([6]; day 21)?
**A.** The value was 0.16.

**Q.** And the “EFS T/C” value [7]?
**A.** The value was 1.2.

**Q.** What about the “Median Final RTV” value [7] of the same molecule?
**A.** Its value is over 4.

**Q.** What about the “Tumor Volume T/C” value ([7]; day 21) of the same molecule?
**A.** Its value is 0.88.

**Q.** What about the “EFS T/C” value [8] of the same molecule?
**A.** Its value is 1.

**Q.** What about the “Median Final RTV” value [8] of the same molecule?
**A.** The value was over 25.

**Q.** And the “EFS T/C” value [9]?
**A.** Its value is 1.4.

**Q.** What about the “Median Final RTV” value [9] of the same molecule?
**A.** Its value is over 4.

**Q.** And the “Tumor Volume T/C” value ([9]; day 21)?
**A.** Its value is 0.77.

**Q.** What about the “EFS T/C” value [10] of the same molecule?
**A.** The value was 1.3.

**Q.** And the “Median Final RTV” value [10]?
**A.** Its value is over 4.

**Q.** And the “Tumor Volume T/C” value ([10]; day 21)?
**A.** Its value is 0.43.

**Q.** What about the “EFS T/C” value [11] of the same molecule?
**A.** The value was over 3.3.

**Q.** And the “EFS activity notation” value [11]?
**A.** The value was “#”.

**Q.** What about the “Median Final RTV” value [11] of the same molecule?
**A.** The value was 1.6#.

**Q.** What about the “Overall Group Response” value [11] of the same molecule?
**A.** Its value is “PD2 (1 < MS ≦ 3)”.

**Q.** And the “Tumor Volume T/C” value ([11]; day 21)?
**A.** The value was 0.6.

— patent US20110262525A1, “METHODS OF TREATMENT” (SCHERING CORPORATION, priority 2006, published 2011)
